Measurements from the supplement of paper PMC11316812.
± gives the standard deviation of the averaged measurements.

Experiments:
hTERT-HMEC = experiment: percentage of EdU-negative (G0-arrested) nuclei per well, 72 h; higher = more G0 arrest; details: reference: sequence is the full UniProt precursor, the tested protein was the secreted form or ectodomain
MCF7 = experiment: as above; details: reference: sequence is the full UniProt precursor, the tested protein was the secreted form or ectodomain
[1] = protein concentration 0.0173625 µM
[2] = protein concentration 0.173625 µM
[3] = protein concentration 0.0142825 µM
[4] = protein concentration 0.142825 µM
[5] = protein concentration 0.0145 µM
[6] = protein concentration 0.0334286 µM
[7] = protein concentration 0.334286 µM
[8] = protein concentration 0.0225 µM
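Note: secreted proteins added to cultured cells, EdU pulse at the end, nuclei found by Hoechst imaging, EdU status from nuclear versus surrounding ring intensity ratio, PBS as neutral control.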

With “MKLCSLAVLVPIVLFCEQHVFAFQSGQVLAALPRTSRQVQVLQNLTTTYEIVLWQPVTADLIVKKKQVHFFVNASDVDNVKAHLNVSGIPCSVLLADVEDLIQQQISNDTVSPRASASYYEQYHSLNEIYSWIEFITERHPDMLTKIHIGSSFEKYPLYVLKVSGKEQAAKNAIWIDCGIHAREWISPAFCLWFIGHITQFYGIIGQYTNLLRLVDFYVMPVVNVDGYDYSWKKNRMWRKNRSFYANNHCIGTDLNRNFASKHWCEEGASSSSCSETYCGLYPESEPEVKAVASFLRRNINQIKAYISMHSYSQHIVFPYSYTRSKSKDHEELSLVASEAVRAIEKISKNTRYTHGHGSETLYLAPGGGDDWIYDLGIKYSFTIELRDTGTYGFLLPERYIKPTCREAFAAVSKIAWHVIRNV [Q96IY4]” the “percentage of EdU-negative” value (hTERT-HMEC; [1]) was 5.24 ± 0.032%, the “percentage of EdU-negative” value (hTERT-HMEC; [2]) was 5.84 ± 0.41% and the “percentage of EdU-negative” value (MCF7; [1]) was 24.7 ± 2.5%. For the same sequence, the “percentage of EdU-negative” value (MCF7; [2]) was 26.8 ± 0.93%.
For “MKLCVTVLSLLMLVAAFCSPALSAPMGSDPPTACCFSYTARKLPRNFVVDYYETSSLCSQPAVVFQTKRSKQVCADPSESWVQEYVYDLELN”, the “percentage of EdU-negative” value (hTERT-HMEC; [3]) was 5.53 ± 0.77%, the “percentage of EdU-negative” value (hTERT-HMEC; [4]) was 5.12 ± 0.26% and the “percentage of EdU-negative” value (MCF7; [3]) was 24.5 ± 1.1%. For the same sequence, the “percentage of EdU-negative” value (MCF7; [4]) was 25.7 ± 0.56%.
“MKLCVTVLSLLVLVAAFCSLALSAPMGSDPPTACCFSYTARKLPRNFVVDYYETSSLCSQPAVVFQTKRGKQVCADPSESWVQEYVYDLELN [Q8NHW4]” was tested, and the “percentage of EdU-negative” value (hTERT-HMEC; [5]) was 5.26 ± 0.85%, the “percentage of EdU-negative” value (hTERT-HMEC; protein concentration 0.145 µM) was 6.68 ± 1.3% and the “percentage of EdU-negative” value (MCF7; [5]) was 23.4 ± 2%. For the same sequence, the “percentage of EdU-negative” value (MCF7; protein concentration 0.145 µM) was 25.62 ± 0.055%.
In the case of “MKLDMTGDCTPVLVLMAAVLTVTGAVPVARLHGALPDARGCHIAQFKSLSPQELQAFKRAKDALEESLLLKDCRCHSRLFPRTWDLRQLQVRERPMALEAELALTLKVLEATADTDPALVDVLDQPLHTLHHILSQFRACIQPQPTAGPRTRGRLHHWLYRLQEAPKKESPGCLEASVTFNLFRLLTRDLNCVASGDLCV [Q8IZJ0]”, the “percentage of EdU-negative” value (hTERT-HMEC; [6]) is reported as 5.29 ± 0.59%, the “percentage of EdU-negative” value (hTERT-HMEC; [7]) is reported as 9.88 ± 1.6% and the “percentage of EdU-negative” value (MCF7; [6]) is reported as 22.9 ± 3.6%. The “percentage of EdU-negative” value (MCF7; [7]) was 25.9 ± 4.6%.
For “MKLGLLCALLSLLAGHGWADTRAIGAEECRPNSQPWQAGLFHLTRLFCGATLISDRWLLTAAHCRKPYLWVRLGEHHLWKWEGPEQLFRVTDFFPHPGFNKDLSANDHNDDIMLIRLPRQARLSPAVQPLNLSQTCVSPGMQCLISGWGAVSSPKALFPVTLQCANISILENKLCHWAYPGHISDSMLCAGLWEGGRGSCQGDSGGPLVCNGTLAGVVSGGAEPCSRPRRPAVYTSVCHYLDWIQEIMEN [Q9UKQ9]”, the “percentage of EdU-negative” value (hTERT-HMEC; [8]) was 5.253 ± 0.046%, the “percentage of EdU-negative” value (hTERT-HMEC; protein concentration 0.225 µM) was 5.62 ± 1.2% and the “percentage of EdU-negative” value (MCF7; [8]) was 26.66 ± 0.14%. For the same sequence, the “percentage of EdU-negative” value (MCF7; protein concentration 0.225 µM) was 29.4 ± 2.3%.
With “MKLHYVAVLTLAILMFLTWLPESLSCNKALCASDVSKCLIQELCQCRPGEGNCSCCKECMLCLGALWDECCDCVGMCNPRNYSDTPPTSKSTVEELHEPIPSLFRALTEGDTQLNWNIVSFPVAEELSHHENLVSFLETVNQPHHQNVSVPSNNVHAPYSSDKEHMCTVVYFDDCMSIHQCKISCESMGASKYRWFHNACCECIGPECIDYGSKTVKCMNCMF [Q9GZX9]” the “percentage of EdU-negative” value (hTERT-HMEC; [8]) was 4.64 ± 0.11%, the “percentage of EdU-negative” value (hTERT-HMEC; protein concentration 0.225 µM) was 12.59 ± 0.086% and the “percentage of EdU-negative” value (MCF7; [8]) was 23.8 ± 4.6%. The “percentage of EdU-negative” value (MCF7; protein concentration 0.225 µM) was 28.8 ± 0.54%.
With “MKLITILFLCSRLLLSLTQESQSEEIDCNDKDLFKAVDAALKKYNSQNQSNNQFVLYRITEATKTVGSDTFYSFKYEIKEGDCPVQSGKTWQDCEYKDAAKAATGECTATVGKRSSTKFSVATQTCQITPAEGPVVTAQYDCLGCVHPISTQSPDLEPILRHGIQYFNNNTQHSSLFMLNEVKRAQRQVVAGLNFRITYSIVQTNCSKENFLFLTPDCKSLWNGDTGECTDNAYIDIQLRIASFSQNCDIYPGKDFVQPPTKICVGCPRDIPTNSPELEETLTHTITKLNAENNATFYFKIDNVKKARVQVVAGKKYFIDFVARETTCSKESNEELTESCETKKLGQSLDCNAEVYVVPWEKKIYPTVNCQPLGMISLMKRPPGFSPFRSSRIGEIKEETTVSPPHTSMAPAQDEERDSGKEQGHTRRHDWGHEKQRKHNLGHGHKHERDQGHGHQRGHGLGHGHEQQHGLGHGHKFKLDDDLEHQGGHVLDHGHKHKHGHGHGKHKNKGKKNGKHNGWKTEHLASSSEDSTTPSAQTQEKTEGPTPIPSLAKPGVTVTFSDFQDSDLIATMMPPISPAPIQSDDDWIPDIQIDPNGLSFNPISDFPDTTSPKCPGRPWKSVSEINPTTQMKESYYFDLTDGLS” the “percentage of EdU-negative” value (hTERT-HMEC; protein concentration 0.006 µM) was 4.85 ± 0.42%, the “percentage of EdU-negative” value (hTERT-HMEC; protein concentration 0.06 µM) was 6.72 ± 0.15% and the “percentage of EdU-negative” value (MCF7; protein concentration 0.006 µM) was 24.3 ± 0.58%. The “percentage of EdU-negative” value (MCF7; protein concentration 0.06 µM) was 26.5 ± 0.67%.
